The results in this text go back to patent US20240382605A1 (IONIS PHARMACEUTICALS, published 2024).

In assay [1] the target is T1, hCD71-Nluc fusion protein (human, UniProt P02786 1-760).
T1 construct: whole, on cells; Used as crude membrane fractions of HEK293 cells stably expressing hCD71-Nluc; also called human transferrin receptor, CD71, fused to NanoLuc; not shown: NanoLuc (ProMega) luciferase joined through its N-terminal Val
In words: nanoBRET competition, tracer BCY17871-1598988 60 nM, HEK293 hCD71-Nluc membranes.

The target in assay [2] is T1, hCD71-Nluc fusion protein. As to the kind of experiment: nanoBRET saturation binding, HEK293 hCD71-Nluc membranes, single site fit.
Protocol: (§1) The mixtures were incubated for 3 hours at room temperature to reach equilibrium. To initiate BRET, 12.4 μL of 100 μM of the Nluc substrate furimazine was added to each well, and the mixtures were incubated for 5-30 minutes. The assay plate was read on a Promega GlowMax Discover plate reader at wavelengths of 450 nm and 600 nm, and the ratio of emissions at wavelengths 450/600 were used to yield % BRET efficiency. Data was subjected to non-linear regression, then fitted to a single site binding hyperbolic function.
For assay [3], the target named is T1, hCD71-Nluc fusion protein. As to the kind of experiment: nanoBRET competition, tracer BCY17871-1598988 60 nM, HEK293 hCD71-Nluc membranes. This is another data set of the same source. (Bioluminescence resonance energy transfer reports proximity on the nanometre scale.)
Assay [4] concerns the target T1, hCD71-Nluc fusion protein. The description is as above. This is another data set of the same source.
The target of assay [5] is T1, hCD71-Nluc fusion protein. Described as above. The source holds these as a separate data set.
The target in assay [6] is T1, hCD71-Nluc fusion protein. The assay is described as above. The source holds these as a separate data set.
Protocol: as §1
(§2) In order to evaluate modified oligonucleotides conjugated to CD71 bicycle ligands and RNAi compounds conjugated to CD71 bicycle ligands, the assay was modified as follows. […] Modified oligonucleotides were conjugated to the bicycle ligands through a SPAAC reaction These were then added at a range of concentrations in triplicate assays points, and the mixtures were incubated for 3 hours at room temperature. BRET was initiated with the addition of furimazine and the assay was completed as described above.
The target in assay [7] is T1, hCD71-Nluc fusion protein. The description is as above. This is another data set of the same source.
Protocol: as §1, §2
Assay [8] concerns the target T2, CD71 (Homo sapiens (Human), UniProt P02786 89-760).
T2 construct: also called transferrin receptor; TfR1
In words: SPR Biacore X100, conjugate duplexed to biotin-DNA on streptavidin chip, CD71 injected 6.25-100 nM, 1:1 fit. A general note: Surface plasmon resonance follows binding to a sensor surface in real time, without labels.
Protocol: The binding affinity for each of the following modified oligonucleotides conjugated to CD71 bicycle ligands was tested on a Biacore X100 surface plasmon resonance (SPR) instrument. 200 units of modified oligonucleotides conjugated to CD71 bicycle ligand were immobilized on a streptavidin chip by injecting a 20 nM solution of 5′-Biotin-labeled DNA (5′-Biotin-TEG-DNA complement to modified oligonucleotide) duplexed with modified oligonucleotides conjugated to CD71 bicycle ligand in HBS—P (10 mM HEPES, pH 7.4, 150 mM NaCl, 0.0005% Surfactant P20) running buffer. […] Kinetic and equilibrium binding analysis was performed using Biacore X100 Evaluation Software, applying 1:1 binding fit.

The target in assay [9] is T1, hCD71-Nluc fusion protein. In words: nanoBRET competition, tracer BCY17871-1598988 60 nM, HEK293 hCD71-Nluc membranes. This is another data set of the same source.
Protocol: as §1, §2
Assay [10] deals with T1, hCD71-Nluc fusion protein. The description is as above. This is another data set of the same source.
Protocol: as §1, §2
For assay [11], the target named is T1, hCD71-Nluc fusion protein. The description is as above. This is another data set of the same source.
Protocol: as §1, §2

Read-outs that look alike come from different tables or passages of the source.

By Ki is commonly meant the dissociation constant of the complex between target and ligand, obtained from inhibition or displacement. Higher therefore signals lower affinity. One may read the Kd as the equilibrium constant for the complex coming apart. The low end stands for a tighter complex, the high end for a looser complex.

T1 sequence (P02786 other isoform, or with tags, fused parts or gaps): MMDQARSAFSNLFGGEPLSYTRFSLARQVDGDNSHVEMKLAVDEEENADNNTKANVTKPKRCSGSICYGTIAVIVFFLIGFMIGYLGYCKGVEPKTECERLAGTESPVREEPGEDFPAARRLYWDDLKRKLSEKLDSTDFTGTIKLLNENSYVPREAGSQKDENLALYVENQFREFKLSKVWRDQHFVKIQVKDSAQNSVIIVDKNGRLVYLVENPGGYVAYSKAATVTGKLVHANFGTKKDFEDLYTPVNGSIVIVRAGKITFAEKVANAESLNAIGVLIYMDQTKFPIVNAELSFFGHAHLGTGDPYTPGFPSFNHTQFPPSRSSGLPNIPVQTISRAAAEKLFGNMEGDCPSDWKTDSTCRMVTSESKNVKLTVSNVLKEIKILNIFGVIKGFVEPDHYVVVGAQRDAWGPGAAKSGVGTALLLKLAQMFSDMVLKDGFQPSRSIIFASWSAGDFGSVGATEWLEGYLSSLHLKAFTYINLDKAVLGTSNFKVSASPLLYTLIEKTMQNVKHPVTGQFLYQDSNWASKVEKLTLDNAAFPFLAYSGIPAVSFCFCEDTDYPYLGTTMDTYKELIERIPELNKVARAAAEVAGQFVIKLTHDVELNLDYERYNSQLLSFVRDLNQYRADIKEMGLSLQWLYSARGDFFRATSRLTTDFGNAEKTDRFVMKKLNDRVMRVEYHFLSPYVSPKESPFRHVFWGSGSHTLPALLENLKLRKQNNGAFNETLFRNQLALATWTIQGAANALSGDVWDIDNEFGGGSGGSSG
T2 sequence (P02786 89-760 limits assumed, form in doubt): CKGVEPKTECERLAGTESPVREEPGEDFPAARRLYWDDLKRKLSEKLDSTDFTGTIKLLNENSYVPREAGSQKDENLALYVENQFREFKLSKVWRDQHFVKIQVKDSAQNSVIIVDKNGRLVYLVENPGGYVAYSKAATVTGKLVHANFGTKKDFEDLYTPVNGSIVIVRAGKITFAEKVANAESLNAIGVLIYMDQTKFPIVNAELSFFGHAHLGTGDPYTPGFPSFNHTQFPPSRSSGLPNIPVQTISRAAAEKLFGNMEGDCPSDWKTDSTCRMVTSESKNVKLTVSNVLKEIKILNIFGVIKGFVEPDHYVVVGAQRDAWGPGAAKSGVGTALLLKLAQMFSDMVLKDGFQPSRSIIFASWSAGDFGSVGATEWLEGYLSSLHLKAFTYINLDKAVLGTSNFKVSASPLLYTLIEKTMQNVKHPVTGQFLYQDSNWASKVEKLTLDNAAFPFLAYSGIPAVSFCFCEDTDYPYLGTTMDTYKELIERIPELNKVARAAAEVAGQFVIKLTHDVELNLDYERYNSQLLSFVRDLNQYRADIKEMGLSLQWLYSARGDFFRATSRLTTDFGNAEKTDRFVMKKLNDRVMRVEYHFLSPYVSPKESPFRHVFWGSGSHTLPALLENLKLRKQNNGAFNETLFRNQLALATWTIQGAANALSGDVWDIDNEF

B1: 486178:1614438-BCY17873 (peptide)
peptide: CSPDAHLGCISYCEPWX
modifications: not fully specified; as printed CSPDAHLGCISYCEPW[K(N3)]: N-terminal acetyl; C-terminal amide; three Cys bound to TATB scaffold; [K(N3)] 6-azido lysine at 17 joined via BCN linker to oligonucleotide 1614438 of the duplex 486178:1614438
notes: nucleic acids; also called Compound No. 486178:1614438 conjugated to BCY17873
In turn, B1 gave an inhibition constant Ki in [1] of 95 nM.

B2: BCY17871-1598988 (peptide)
peptide: NWNCSPDAHLGCISYCX
modifications: as printed NWNCSPDAHLGCISYC[K(N3)]: N-terminal acetyl; C-terminal amide; three Cys bound to TATB scaffold; [K(N3)] 6-azido lysine at 17 joined by SPAAC to BCN on oligonucleotide 1598988
notes: also called tracer compound
The molecule B2 had a Kd in assay [2] of 57 to 58 nM.

B3: 1598988-BCY17901 (peptide)
peptide: CPXDAYLGCXSYCEPWX
modifications: as printed CP[HyP]DAYLGC[tBuGly]SYCEPW[K(N3)]: N-terminal acetyl; C-terminal amide; three Cys bound to TATB scaffold; [HyP] 4-trans-hydroxy-L-proline at 3; [tBuGly] t-butyl glycine at 10; [K(N3)] 6-azido lysine at 17 joined via BCN linker to oligonucleotide 1598988
For B3, the Ki in [3] was 4.4 nM. In other words, the single-digit nanomolar range.

B4: 1453015:1550983-BCY17873 (peptide)
peptide: CSPDAHLGCISYCEPWX
modifications: not fully specified; as printed CSPDAHLGCISYCEPW[K(N3)]: N-terminal acetyl; C-terminal amide; three Cys bound to TATB scaffold; [K(N3)] 6-azido lysine at 17 joined via BCN linker to sense strand 1550983 of the RNAi duplex 1453015:1550983
notes: nucleic acids; also called RNAi compound 1453015:1550983 conjugated to BCY17873
On to B4, for which the values for the Ki in [4] and in assay [5] were 38 nM and 9 nM, respectively.

B5: 1590463-BCY17873 (peptide)
peptide: CSPDAHLGCISYCEPWX
modifications: not fully specified; as printed CSPDAHLGCISYCEPW[K(N3)]: N-terminal acetyl; C-terminal amide; three Cys bound to TATB scaffold; [K(N3)] 6-azido lysine at 17 joined via BCN linker to oligonucleotide 1590463
notes: also called Compound No. 1590463 conjugated to BCY17873
Take B5: the inhibitory constant (Ki) in [6] worked out at 1 nM; in assay [7] it was 10 nM; in [9], 6 nM; in [10] it was 7 nM; in assay [11] it was 4 nM. Binding in assay [8] was put at a Kd of 12 nM.

B6: 1598988-BCY17896 (peptide)
peptide: CPXDAYLGCXSYCX
modifications: as printed CP[HyP]DAYLGC[tBuGly]SYC[K(N3)]: N-terminal acetyl; C-terminal amide; three Cys bound to TATB scaffold; [HyP] 4-trans-hydroxy-L-proline at 3; [tBuGly] t-butyl glycine at 10; [K(N3)] 6-azido lysine at 14 joined via BCN linker to oligonucleotide 1598988
The molecule B6 displayed a Ki in assay [3] of 9.9 nM.

B7: 1591118-BCY17896 (peptide)
peptide: CPXDAYLGCXSYCX
modifications: as printed CP[HyP]DAYLGC[tBuGly]SYC[K(N3)]: N-terminal acetyl; C-terminal amide; three Cys bound to TATB scaffold; [HyP] 4-trans-hydroxy-L-proline at 3; [tBuGly] t-butyl glycine at 10; [K(N3)] 6-azido lysine at 14 joined via BCN linker to oligonucleotide 1591118
notes: also called Compound No. 1591118 conjugated to BCY17896
Turning to B7, the affinity in assay [3], expressed as Ki, was 3.1 nM.

B8: 1591118-BCY17901 (peptide)
peptide: CPXDAYLGCXSYCEPWX
modifications: as printed CP[HyP]DAYLGC[tBuGly]SYCEPW[K(N3)]: N-terminal acetyl; C-terminal amide; three Cys bound to TATB scaffold; [HyP] 4-trans-hydroxy-L-proline at 3; [tBuGly] t-butyl glycine at 10; [K(N3)] 6-azido lysine at 17 joined via BCN linker to oligonucleotide 1591118
notes: also called Compound No. 1591118 conjugated to BCY17901
On to B8, for which, in assay [3], affinity was put at a Ki of 1.4 nM.
